The values below come from the RNAGym collection of RNA variant scans (doi:10.1093/molbev/msab373).

Sequences and labels used below:
B1: Azoarcus group I ribozyme (parent)
chain: GUGCCUUGCGCCGGGAAACCACGCAAGGGAUGGUGUCAAAUUCGGCGAAACCUAAGCGCCCGCCCGGGCGUAUGGCAACGCCGAGCCAAGCUUCGGCGCCUGCGCCGAUGAAGGUGUAGAGACUAGACGGCACCCACCUAAGGCAAACGCUAUGGUGAAGGCAUAGUCCAGGGAGUGGCGAAAGUCACACAAACCGG

The variants in the data set derive from B1. Briefly: reverse-splicing fitness (ratio to wild type); higher = more active; in vitro selection; Mg2+ level not given. The procedure, abridged:
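An in vitro group I ribozyme library with randomized positions was T7-transcribed and gel-purified. In triplicate, 10 pmol RNA in EPPS pH 7.5 was reacted with 50 pmoles of a 30-nt RNA substrate for 1 h at 37 °C across several added MgCl2 levels (1–48 mM), then stopped with EDTA. Products were reverse transcribed from a substrate-complementary primer, PCR-amplified and sequenced (HiSeq 4000). Fitness is a variant's read proportion after selection over that before, normalised to wild type.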
As to C82G A111G A120C A145C C150A C169A, the reverse-splicing fitness was 0.00953.
For C82G A111G A120C A145C C150A C169G the value was 0.00899.
As to C82G A111G A120G A145C, the reverse-splicing fitness is 0.0157.
As for C82G A111G A120C A145G C150A C169G, the reverse-splicing fitness is 0.0104.
Consider C82G A111G A120C A145G C150A C169A, for which the reverse-splicing fitness is 0.0118.
For C82G A111G A120C A145G C150A C169U the value was 0.0118; for C82G A111G A120C A145U C150A C169A U176A, 0.0183.
As to C82G A111G A120C A145U C150A C169A U176C, the reverse-splicing fitness was determined as 0.0161.
Take C82G A111G A120C A145U C150A C169A U176G: the reverse-splicing fitness is 0.0061.
With C82G A111G A120G A145C C150A U176A, the reverse-splicing fitness turned out to be 0.0127.
With C82G A111G A120G A145C C150A U176C, the reverse-splicing fitness is 0.0132.
For C82G A111G A120G A145C C150A U176G the value was 0.00588; for C82G A111C C150A C169G U176G, 0.00931.
For C82G A111C C150A C169G U176A, the reverse-splicing fitness stood at 0.0173.
For the variant C82G A111C C150A C169G U176C, the reverse-splicing fitness stood at 0.024.
For the variant C82G A111G A120C C150U C169U U176C, the reverse-splicing fitness worked out at 0.017.
Regarding C82G A111G A120C C150U C169U U176G, the reverse-splicing fitness was found to be 0.00815.
The value for C82G A111G A120C C150U C169U U176A was 0.0166.
Regarding C82G A111G A120C A145G C150G C169A, the reverse-splicing fitness was 0.00978.
The value for C82G A111G A120C A145G C150G C169U was 0.00987; that for C82G A111G A120C A145G C150G C169G was 0.00764.
For C82G A111G A120C C150A C169G U176G, the reverse-splicing fitness is 0.00655.
Consider C82G A111G A120C C150A C169G U176C, for which the reverse-splicing fitness is 0.0218.
In the case of C82G A111G A120C C150A C169G U176A, the reverse-splicing fitness stood at 0.0218.
On to C82G A111G A120C C150G C169A U176A, for which the reverse-splicing fitness was 0.0102.
For C82G A111G A120C C150G C169A U176C the value was 0.016; for C82G A111G A120C C150G C169A U176G, 0.00813; for C82G A111G A120C A145G C150U U176C, 0.0344.
In the case of C82G A111G A120C A145G C150U U176G, the reverse-splicing fitness is 0.0117.
For C82G A111G A120C A145G C150U U176A the value was 0.0189; for C82G A111G A120C A145U C150G C169U U176A, 0.0078.
For C82G A111G A120C A145U C150G C169U U176G the value was 0.00604; for C82G A111G A120C A145U C150G C169U U176C, 0.0131.
For C82G A111C C150U C169A U176C the value was 0.0143.
As to C82G A111C C150U C169A U176G, the reverse-splicing fitness came out at 0.00817.
The value for C82G A111C C150U C169A U176A was 0.0125; that for C82G A111G A120C A145U C169G U176C was 0.0163; that for C82G A111G A120C A145U C169G U176A was 0.0157.
With C82G A111G A120C A145U C169G U176G, the reverse-splicing fitness amounted to 0.00477.
For C82G A111G A120C C150U U176C the value was 0.0344.
With C82G A111G A120C C150U U176A, the reverse-splicing fitness is 0.0201.
For C82G A111G A120C C150U U176G the value was 0.0127; for C82G A111G, 0.411; for C82G A111G A120C A145C C169G, 0.00871.
In the case of C82G A111G A120C A145C C169A, the reverse-splicing fitness was determined as 0.00695.
The value for C82G A111G A120C A145C C169U was 0.0144; that for C82G A111G A120C A145U C150A C169A was 0.0104; that for C82G A111G A120C A145U C150A C169U was 0.00952.
The value for C82G A111G A120C A145U C150A C169G was 0.00822; that for C82G A111G A120C A145G C150U C169U U176C was 0.0145.
As for C82G A111G A120C A145G C150U C169U U176A, the reverse-splicing fitness is 0.0133.
For C82G A111G A120C A145G C150U C169U U176G, the reverse-splicing fitness turned out to be 0.00664.
In the case of C82G A111C C150A C169U U176C, the reverse-splicing fitness is 0.0178.
For C82G A111C C150A C169U U176A the value was 0.0193; for C82G A111C C150A C169U U176G, 0.0093.
Take C82G A111G A120C A145U C150A: the reverse-splicing fitness is 0.0142.
Regarding C82G A111G A120C A145U C150U, the reverse-splicing fitness amounted to 0.0494.
For C82G A111G A120C A145U C150G the value was 0.0127; for C82G A111G A120C C169G, 0.00841.
For C82G A111G A120C C169A the value was 0.0101; for C82G A111G A120C C169U, 0.0179; for C82G A111G A120C A145C C169G U176G, 0.0055.
For C82G A111G A120C A145C C169G U176C the value was 0.0182; for C82G A111G A120C A145C C169G U176A, 0.0254; for C82G A111G A120C C169G U176G, 0.00531.
As for C82G A111G A120C C169G U176C, the reverse-splicing fitness was determined as 0.0193.
The value for C82G A111G A120C C169G U176A was 0.0164.
The value for C82G A111G A120G A145C C150A C169U U176G was 0.00551; that for C82G A111G A120G A145C C150A C169U U176C was 0.0128.
The value for C82G A111G A120G A145C C150A C169U U176A was 0.021; that for C82G A111G A120C A145U C150A U176G was 0.00773; that for C82G A111G A120C A145U C150A U176C was 0.0167.
Take C82G A111G A120C A145U C150A U176A: the reverse-splicing fitness came out at 0.0132.
For C82G A111C C150A C169A U176G the value was 0.00921.
For C82G A111G A120C A145G C150U C169A the value was 0.0104; for C82G A111G A120C A145G C150U C169U, 0.016; for C82G A111G A120C A145G C150U C169G, 0.00893.
For C82G A111G A120G A145C C150A C169A U176G the value was 0.00537.
C82G A111G A120G A145C C150A C169A U176C: the reverse-splicing fitness amounted to 0.00767.
For C82G A111G A120G A145C C150A C169A U176A the value was 0.0139.
For C82G A111G A120C A145G C150A U176C the value was 0.0254; for C82G A111G A120C A145G C150A U176A, 0.0144; for C82G A111G A120C A145G C150A U176G, 0.0119.
On to C82G A111G A120G A145C C150A, for which the reverse-splicing fitness came out at 0.00699.
